Experimental data reported in patent US20190144558A1.

Target: purified human CD117 ectodomain (R&D Systems #332-SR) (human) (UniProt P10721)
Assay: BLI (Octet Red96), IgG on anti-human Fc sensors, human CD117 ectodomain at 33.3 and 11 nM, 1:1 fit

B1: Antibody 61 (antibody, human IgG1, kappa, V domains shown)
VH: EVQLLESGGGLVQPGGSLRLSCAASGFTFSSYVMIWVRQAPGKGLEWVSSISGDSVTTYYADSVKGRFTISRDNSKNTLYLQMNSLRAEDTAVYYCAKGPPTYHTNYYYMDVWGKGTTVTVSS
VL: DIQMTQSPSSVSASVGDRVTITCRASQGISSWLAWYQQKPGKAPKLLIYAASSLQSGVPSRFSGSGSGTDFTLTISSLQPEDFATYYCQQTNSFPYTFGGGTKVEIKR
Question: For B1, which Kd is on record?
Answer: 24.9 nM

Question: And the koff?
Answer: 0.00533 s⁻¹

Question: And the kon?
Answer: 214000 M⁻¹ s⁻¹
